# Measurements from US20200392228A1 (PANDION OPERATIONS, published 2020).
# Residue numbers refer to the chain shown, from its start.
# T1: human MAdCAM expressed on cells (human, UniProt Q13477 19-382)
# T1 construct: whole, on cells; also called MADCAM1
# T1 sequence (looked up): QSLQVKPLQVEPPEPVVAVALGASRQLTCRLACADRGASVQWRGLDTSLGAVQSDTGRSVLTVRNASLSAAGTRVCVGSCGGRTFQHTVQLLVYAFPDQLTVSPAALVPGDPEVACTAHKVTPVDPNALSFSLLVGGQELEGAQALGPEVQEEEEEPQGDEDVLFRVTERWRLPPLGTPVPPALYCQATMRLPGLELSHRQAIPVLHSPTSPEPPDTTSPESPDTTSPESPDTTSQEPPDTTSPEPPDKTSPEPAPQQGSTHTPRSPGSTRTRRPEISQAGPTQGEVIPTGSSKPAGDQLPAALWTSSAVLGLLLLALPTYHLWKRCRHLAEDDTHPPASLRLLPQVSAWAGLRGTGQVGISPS
# T2: mouse MAdCAM expressed on cells (mouse, UniProt Q61826 22-405)
# T2 construct: whole, on cells
# T2 sequence (looked up): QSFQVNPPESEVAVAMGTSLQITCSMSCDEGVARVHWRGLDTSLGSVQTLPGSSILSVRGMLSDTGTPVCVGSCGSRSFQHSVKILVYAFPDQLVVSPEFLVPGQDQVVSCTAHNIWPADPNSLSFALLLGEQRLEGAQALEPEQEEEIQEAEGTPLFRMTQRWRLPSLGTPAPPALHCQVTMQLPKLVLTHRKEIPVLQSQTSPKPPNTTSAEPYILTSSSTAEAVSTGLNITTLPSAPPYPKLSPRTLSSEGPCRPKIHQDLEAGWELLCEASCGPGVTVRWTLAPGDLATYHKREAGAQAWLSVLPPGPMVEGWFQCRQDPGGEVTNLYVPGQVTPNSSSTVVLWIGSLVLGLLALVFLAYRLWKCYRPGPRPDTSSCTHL
# B1: MAdCAM antibody Clone ID 13 of Table 7 (IgG) (antibody, V domains shown)
# VH: QVQLVQSGAEVKKPGASVKVSCKASGYTFTTYYMHWVRQAPGQGLEWMGGFDPEDGETIYAQKFQGRVTMTRDTSTSTVYMELSSLRSEDTAVYYCARHAVAGAVGAGYYYYGMDVWGQGTMVTVSS
# VL: DIQMTQSPSSLSASVGDRVTITCRASESISNWLAWYQQKPGKAPKLLIYAASTLQSGVPSRFSGSGSGTDFTLTISSLQPEDFATYYCQQSYSVPFTFGPGTKVDIK
# notes: IgG format
# B2: MAdCAM antibody Clone ID 18 of Table 7 (IgG) (antibody, V domains shown)
# VH: QVQLVQSGAEVKKPGSSVKVSCKASGYTFTNYYMHWVRQAPGQGLEWMGGIIPIVDRVKYAQKFQGRVTITADESTSTAYMELSSLRSEDTAVYYCAKGRYTVNYYYGMDVWGQGTTVTVSS
# VL: DIQMTQSPSSLSASVGDRVTITCQANQDISNYLNWYQQKPGKAPKLLIYRASKLEAGVPSRFSGSGSGTDFTLTISSLQPEDFATYYCQQSSEIPYSFGQGTKLEIK
# notes: IgG format
# B3: MAdCAM antibody Clone ID 19 of Table 7 (IgG) (antibody, V domains shown)
# VH: EVQLLESGGGLVQPGGSLRLSCAASGFTFEDYAMHWVRQAPGKGLEWVSYLNSDGGSTSYADSVKGRFTISRDNSKNTLYLQMNSLRAEDTAVYYCAKDYCTNGVCAFDYWGQGTLVTVSS
# VL: DIQMTQSPSSLSASVGDRVTITCRASQSISTYLNWYQQKPGKAPKLLIYDASNLETGVPSRFSGSGSGTDFTLTISSLQPEDFATYYCQQSYTIPITFGQGTRLEIK
# notes: IgG format
# B4: MAdCAM antibody Clone ID 21 of Table 7 (IgG) (antibody, V domains shown)
# VH: EVQLVESGGGLVKPGGSLRLSCAASGFTFSSYWMSWVRQAPGKGLEWVSYISGDSGYTNYAAPVKGRFTISRDDSKNTLYLQMNSLKTEDTAVYYCARANSSGWYDWYFDLWGRGTLVTVSS
# VL: not shown
# notes: IgG format
# B5: MAdCAM antibody Clone ID 1 of Table 7 (IgG) (antibody, V domains shown)
# VH: EVQLLESGGGLVQPGGSLRLSCAASGFTFSSYGMHWVRQAPGKGLEWVAVISDDGSDKYYADSVKGRFTISRDNSKNTLYLQMNSLRAEDTAVYYCTTSKYYYYYGMDVWGQGTTVTVSS
# VL: DIQMTQSPSSLSASVGDRVTITCQASQDISKSLNWYQQKPGKAPKLLIYAASSLQSGVPSRFSGSGSGTDFTLTISSLQPEDFATYYCQQGYSTPLTFGGGTKVEIK
# notes: IgG format
# B6: MAdCAM antibody Clone ID 25 of Table 7 (IgG) (antibody, V domains shown)
# VH: EVQLLESGGGLVQPGGSLRLSCAASGFTFSNAWMSWVRQAPGKGLEWVSTIVGNGGATYYADSVKGRFTISRDNSKNTLYLQMNSLRAEDTAVYYCARDNPLRWQGMDVWGQGTLVTVSS
# VL: B1 VL with E27Q, S28D, W32Y, A34N, T53S, V94I, F96P
# notes: IgG format
# B7: MAdCAM antibody Clone ID 16 of Table 7 (IgG) (antibody, V domains shown)
# VH: EVQLLESGGGLVQPGGSLRLSCAASGFTFDDYAMHWVRQAPGKGLEWVSYIDASGTTIYYADSVKGRFTISRDNSKNTLYLQMNSLRAEDTAVYYCAKDQAAAGYWYFDLWGRGTLVTVSS
# VL: B3 VL with R24Q, S28D, T31N, D50K, N53T, T56S, T93S, I94T
# notes: IgG format
# B8: MAdCAM antibody Clone ID 15 of Table 7 (IgG) (antibody, V domains shown)
# VH: QVQLVQSGAEVKKPGASVKVSCKASGYTFTGYYMHWVRQAPGQGLEWMGWIGPNSGDTNYAQKFQGRVTMTRDTSTSTVYMELSSLRSEDTAVYYCARDLDHNWYFDLWGRGTLVTVSS
# VL: DIVMTQSPLSLPVTPGEPASISCRSSQSLLHSNGYNYLDWYLQKPGQSPQLLIYSSSNRAPGVPDRFSGSGSGTDFTLKISRVEAEDVGVYYCMQALHIPLTFGGGTKVEIK
# notes: IgG format
# B9: MAdCAM antibody Clone ID 33 of Table 6 (scFv) (scFv)
# scFv: QVQLVQSGAEVKKPGASVKVSCKASGYTFTSYGISWVRQAPGQGLEWMGWMHPKSGDTGLTQKFQGRVTMTRDTSTSTVYMELSSLRSEDTAVYYCARDTPYYYYGMDVWGQGTTVTVSSGGGGSGGGGSGGGGSGGGGSDIQMTQSPSSLSASVGDRVTITCRASQSISSWLAWYQQKPGKAPKLLIYAASSLQSGVPSRFSGSGSGTDFTLTISSLQPEDFATYYCQQSYSVPITFGQGTKVEIK
# B10: MAdCAM antibody Clone ID 32 of Table 6 (scFv) (scFv)
# scFv: QVQLVQSGAEVKKPGASVKVSCKASGYTLTDYYMHWVRQAPGQGLEWMGIINPSGGSTSYAQKFQGRVTMTRDTSTSTVYMELSSLRSEDTAVYYCAREEYSSSSGYFDYWGQGTLVTVSSGGGGSGGGGSGGGGSGGGGSDIQMTQSPSSLSASVGDRVTITCRASQGISSWLAWYQQKPGKAPKLLIYAASSLQSGVPSRFSGSGSGTDFTLTISSLQPEDFATYYCQQSYSTPLTFGQGTKVEIK
# B11: MAdCAM antibody Clone ID 35 of Table 6 (scFv) (scFv)
# scFv: EVQLLESGGGLVQPGGSLRLSCAASGFSFSSYTMNWVRQAPGKGLEWVSFITSSSRTIYYADSVKGRFTISRDNSKNTLYLQMNSLRAEDTAVYYCARDRRGDYGDSWYFDLWGRGTLVTVSSGGGGSGGGGSGGGGSGGGGSEIVMTQSPATLSVSPGERATLSCRASQSVRNYLAWYQQKPGQAPRLLIYGASTRATGIPARFSGSGSGTEFTLTISSLQSEDFAVYYCQQYGSSPLTFGGGTKVEIK
# B12: MAdCAM antibody Clone ID 31 of Table 6 (scFv) (scFv)
# scFv: QVQLVQSGAEVKKPGASVKVSCKASGYTFTSYYMHWVRQAPGQGLEWMGIINPSGGSTSYAQKFQGRVTMTRDTSTSTVYMELSSLRSEDTAVYYCARDTGYSYGRYYYYGMDVWGQGTLVTVSSGGGGSGGGGSGGGGSGGGGSDIQMTQSPSSLSASVGDRVTITCRASQSIGRWLAWYQQKPGKAPKLLIYDASNLQSGVPSRFSGSGSGTDFTLTISSLQPEDFATYYCQQSYSIPITFGQGTKVEIK
# B13: MAdCAM antibody Clone ID 36 of Table 6 (scFv) (scFv)
# scFv: B12 scFv with S31G, Y32H, L120T, Q245G
# B14: MAdCAM antibody Clone ID 38 of Table 6 (scFv) (scFv)
# scFv: EVQLLESGGGLVQPGGSLRLSCAASGFTFGSYSMSWVRQAPGKGLEWVSAIGTGGGTYYADSVKGRFTISRDNSKNTLYLQMNSLRAEDTAVYYCAKGTPYYYYYGMDVWGQGTMVTVSSGGGGSGGGGSGGGGSGGGGSDIQMTQSPSSLSASVGDRVTITCRASQPLSNWLAWYQQKPGKAPKLLIYAASSLQSGVPSRFSGSGSGTDFTLTISSLQPEDFATYYCQQAISFPLTFGGGTKVEIK
# B15: MAdCAM antibody Clone ID 37 of Table 6 (scFv) (scFv)
# scFv: QVQLVQSGAEVKKPGASVKVSCKASGYTFSKHFVHWVRQAPGQGLEWMGWMNPNSGNSGYAQKFQGRVTMTRDTSTSTVYMELSSLRSEDTAVYYCARGEGGYYYYGMDVWGQGTLVTVSSGGGGSGGGGSGGGGSGGGGSDIQMTQSPSSLSASVGDRVTITCRASQSISSWLAWYQQKPGKAPKLLIYAASTLQSGVPSRFSGSGSGTDFTLTISSLQPEDFATYYCQQSYSTPWTFGQGTKVEIK
# B16: MAdCAM antibody Clone ID 29 of Table 6 (scFv) (scFv)
# scFv: QVQLVQSGAEVKKPGASVKVSCKASGYTFTSYYMHWVRQAPGQGLEWMAWMNPNSGNTGYAQKFQGRVTMTRDTSTSTVYMELSSLRSEDTAVYYCARDYDFWSGSLGYWGQGTLVTVSSGGGGSGGGGSGGGGSGGGGSDIQMTQSPSSLSASVGDRVTITCRASQGISNYLAWYQQKPGKAPKLLIYAASSLQSGVPSRFSGSGSGTDFTLTISSLQPEDFATYYCQQSYSTPWTFGQGTKVEIK
# B17: MAdCAM antibody Clone ID 28 of Table 6 (scFv) (scFv)
# scFv: QVQLVQSGAEVKKPGASVKVSCKASGYTFTDYFLHWVRQAPGQGLEWMGWMNPTSGNTGYAQKFQGRVTMTRDTSTSTVYMELSSLRSEDTAVYYCAREGEGSGFDYWGQGTLVTVSSGGGGSGGGGSGGGGSGGGGSDIQMTQSPSSLSASVGDRVTITCRASQGINSWLAWYQQKPGKAPKLLIYDASNLETGVPSRFSGSGSGTDFTLTISSLQPEDFATYYCQQSYSTPLTFGGGTKVEIK
# B18: MAdCAM antibody Clone ID 39 of Table 6 (scFv) (scFv)
# scFv: QVQLVQSGAEVKKPGASVKVSCKASGYTFTSYYMHWVRQAPGQGLEWMGWMNPNSGNTGYAQKFQGRVTMTRDTSTSTVYMELSSLRSEDTAVYYCARDLGYYDSSGYFGAFDIWGQGTTVTVSSGGGGSGGGGSGGGGSGGGGSDIQMTQSPSSLSASVGDRVTITCQSSEDISSSLNWYQQKPGKAPKLLIYAASSLQIGVPSRFSGSGSGTDFTLTISSLQPEDFATYYCQQTYSTPYTFGQGTKVEIK
# Target: T1, human MAdCAM expressed on cells
# Experiment: cell binding
row,Binder,binding result
1,B1,binds
2,B2,binds
3,B3,binds
4,B4,binds
5,B5,binds
6,B6,binds
7,B7,binds
8,B8,binds

# Target: T2, mouse MAdCAM expressed on cells
# Experiment: cell binding
row,Binder,binding result
1,B1,no binding
2,B2,no binding
3,B3,no binding
4,B4,no binding
5,B5,binds
6,B6,no binding
7,B7,no binding
8,B8,no binding

# Target: T1, human MAdCAM expressed on cells
# Experiment: cell binding
# Remark: another data set of the same source
row,Binder,binding result
1,B9,binds
2,B10,binds
3,B11,binds
4,B12,binds
5,B13,binds
6,B14,binds
7,B15,binds
8,B16,binds
9,B17,binds
10,B18,binds

# Target: T2, mouse MAdCAM expressed on cells
# Experiment: cell binding
# Remark: another data set of the same source
row,Binder,binding result
1,B9,no binding
2,B10,no binding
3,B11,no binding
4,B12,no binding
5,B13,no binding
6,B14,no binding
7,B15,no binding
8,B16,no binding
9,B17,no binding
10,B18,no binding
